Assay results taken from patent US20110262525A1, “METHODS OF TREATMENT” (SCHERING CORPORATION, priority 2006, published 2011).
Marks after values point to notes of the source that are not given here.

Columns and labels:
[1] = system: ALL-16 xenograft (ALL T-cell); experiment: PPTP in vivo leukemia xenograft ALL-16; settings: ALL-16 (ALL T-cell) xenograft; 0.5 mg per mouse ip twice weekly for four weeks
Method: (§1) The PPTP includes a molecularly characterized in vitro panel of cell lines (n=27) and in vivo panel of xenografts (n=61) representing most of the common types of childhood solid tumors and childhood ALL (acute lymphoblastic leukemia). LCF/HCA anti-IGF1R antibody was tested against the PPTP in vitro panel at concentrations ranging from 0.01 nM to 100 nM; and was tested against the PPTP in vivo panel at a dose of 0.5 mg per mouse administered twice weekly for four weeks via intraperitoneal injection. […]
(§2) In vivo acute lymphoblastic leukemia testing: For each xenograft line, 8 mice were inoculated with 3-5×10^6 mononuclear cells purified from the spleens of secondary recipient mice. Engraftment was monitored weekly by flow cytometry, and treatment was initiated when the proportion of human CD45+ cells in the peripheral blood reached 1%. The proportion of human CD45+ cells in the peripheral blood was monitored weekly throughout the course of treatment. […]
(§3) Median Group Response: Each individual mouse in each treatment group was assigned a response score (see Tables above) and a median score for the treatment group was calculated and then each treatment group was assigned an overall response according to the table below. […]

[2] = system: D456 xenograft (Glioblastoma); experiment: PPTP in vivo xenograft D456
Method: (§4) The PPTP includes a molecularly characterized in vitro panel of cell lines (n=27) and in vivo panel of xenografts (n=61) representing most of the common types of childhood solid tumors and childhood ALL (acute lymphoblastic leukemia). LCF/HCA anti-IGF1R antibody was tested against the PPTP in vitro panel at concentrations ranging from 0.01 nM to 100 nM; and was tested against the PPTP in vivo panel at a dose of 0.5 mg per mouse administered twice weekly for four weeks via intraperitoneal injection. Three measures of antitumor activity were used: 1) response criteria modeled after the clinical setting; 2) treated-to-control (T/C) tumor volume at day 21; and 3) a time to event (4-fold increase in tumor volume) measure based on the median EFS of treated and control lines (intermediate activity required EFS (event-free survival) T/C>2, and high activity additionally required a net reduction in median tumor volume at the end of the experiment).
(§5) Stage 1 testing involved testing an agent across the entire PPTP panel of childhood cancer xenograft lines at its maximum tolerated dose (MTD) or at a dose selected based on PK/PD (pharmacokinetic/pharmacodynamic) studies using adult preclinical models.
(§6) In vivo solid tumor testing: For each xenograft line, 10 mice bearing subcutaneous (SC) tumors initiated treatment when the tumors were between 0.2-0.5 cm^3 in volume. Two perpendicular tumor diameters were measured at once weekly intervals with digital vernier calipers. Assuming tumors to be spherical, volumes were calculated from the formula (π/6)×d3, where d represented the mean diameter.
(§7) Drug: LCF/HCA was dissolved in 20mM sodium acetate pH 5 buffer containing 150 mM sodium chloride, and administered intraperitoneally twice weekly for 4 consecutive weeks at a dose of 0.5 mg per animal. […]
as §3

EW8 xenograft (Ewings) = experiment: PPTP in vivo xenograft EW8
Method: as §4, §5, §6, §7, §3

[3] = system: ALL-3 xenograft (ALL B-precursor); experiment: PPTP in vivo leukemia xenograft ALL-3; settings: ALL-3 (ALL B-precursor) xenograft; 0.5 mg per mouse ip twice weekly for four weeks
Method: as §1, §2, §3

[4] = system: squamous cell carcinoma cell line SCC 9; experiment: Cell-Titer Glo proliferation assay, SCC9; format: cell-based; settings: 0.000256-100 nM antibody, 96 hours
Method: (§8) Cell proliferation was assayed using a Cell-Titer Glo assay (Promega Corp.; Madison, Wis.). A cell-titer glo assay generates a “glow” luminescent signal in the presence of ATP from viable cells, which can be detected with a plate reader luminometer or CCD imaging device.
(§9) In this assay, squamous cell carcinoma cells, SCC9, SCC25 and SCC15, were trypsinized, counted and resuspended at 25,000 cells/ml in 10% HI-FBS RPMI containing NEAA, L-Glu, MEM Vitamins and PS. […] (2500 cells) were added to each well BD Falcon 96 well black, clear bottom TC treated plate. Cells were allowed to attach and spread overnight at 37° C. Then, 10% RPMI medium was replaced with […] 2% RPMI, containing the LCF/HCA antibody at the appropriate concentration, the following day. The anti-IGF1R antibody concentrations used in each experiment were 100 nM, 20 nM, 5 nM, 0.8 nM, 0.16 nM, 0.032 nM, 0.0064 nM, 0.00128 nM, and 0.000256 nM. All treatments were prepared in 2% RPMI at 20× concentration and serial diluted. Every test point was prepared in triplicate on separate assay plates. As mentioned above, cell proliferation was measured using the CellTiter-Glo Luminescent Cell Viability Assay (Promega) at 96 hours post treatment. Luminescence was detected on a Wallac 420 Plate Reader with stacker.

[5] = system: ALL-7 xenograft (ALL B-precursor); experiment: PPTP in vivo leukemia xenograft ALL-7; settings: ALL-7 (ALL B-precursor) xenograft; 0.5 mg per mouse ip twice weekly for four weeks
Method: as §1, §2, §3

[6] = system: D645 xenograft (Glioblastoma); experiment: PPTP in vivo xenograft D645; design: key to EFS activity notation (high, intermediate, indeterminate): high (!); intermediate (#); indeterminate (^)
Method: as §4, §5, §6
Drug: LCF/HCA was dissolved in 20mM sodium acetate pH 5 buffer containing 150 mM sodium chloride, and administered intraperitoneally twice weekly for 4 consecutive weeks at a dose of 0.5 mg per animal. The antibody was provided to each testing site in coded vials for blinded testing according the PPTP's standard operating procedures.
Median Group Response: Each individual mouse in each treatment group was assigned a response score (see Tables above) and a median score for the treatment group was calculated and then each treatment group was assigned an overall response according to the table below.
Statistical Methods: Event-free survival (EFS) distributions of each treatment group were compared to the EFS distribution of the respective control group using the exact log rank test. P-values were 2-sided & were not adjusted for multiple comparisons given the exploratory nature of this study. P-values<0.05 were considered to be significant.

[7] = system: squamous cell carcinoma cell line SCC 15; experiment: Cell-Titer Glo proliferation assay, SCC15; format: cell-based, human; settings: 0.000256-100 nM antibody, 96 hours
Method: as §8, §9

TC-71 xenograft (Ewings) = experiment: PPTP in vivo xenograft TC-71; settings: TC-71 (Ewings) xenograft, 0.5 mg per mouse ip twice weekly for four weeks
Method: as §4, §5, §6, §7, §3

[8] = system: BT-28 xenograft (Medulloblastoma); experiment: PPTP in vivo xenograft BT-28; settings: BT-28 (Medulloblastoma) xenograft, 0.5 mg per mouse ip twice weekly for four weeks
Method: as §4, §5, §6, §7, §3

[9] = system: SK-NEP-1 xenograft (Ewings); experiment: PPTP in vivo xenograft SK-NEP-1; settings: SK-NEP-1 (Ewings) xenograft, 0.5 mg per mouse ip twice weekly for four weeks
Method: as §4, §5, §6, §7, §3

[10] = system: BT-29 xenograft (Rhabdoid); experiment: PPTP in vivo xenograft BT-29; settings: BT-29 (Rhabdoid) xenograft, 0.5 mg per mouse ip twice weekly for four weeks
Method: as §4, §5, §6, §7, §3

[11] = 0.5 mg per mouse ip twice weekly for four weeks
[12] = day 21, 0.5 mg per mouse ip twice weekly for four weeks

B1: LCF/HCA: fully human anti-IGF1R antibody comprising the mature 19D12/15H12 light chain F (LCF) and mature heavy chain A (HCA) (antibody, V domains shown)
VH: EVQLVQSGGGLVHPGGSLRLSCAASGFTFSSFAMHWVRQAPGKGLEWISVIDTRGATYYADSVKGRFTISRDNAKNSLYLQMNSLRAEDMAVYYCARLGNFYYGMDVWGQGTTVTVSS
VL: EIVLTQVPDFQSVTPKEKVTITCRASQSIGSSLHWYQQKPDQSPKLLIKYASQSLSGVPSRFSGSGSGTDFTLTINSLEAEDAAAYYCHQSSRLPHTFGGGTKVEIKRT
How did the “EFS T/C” value [1] turn out when B1 was run?
Its value is 1.

What about the “Median Final RTV” value [1] of the same molecule?
The value was over 25.

What about the “EFS T/C” value [2, 11] of the same molecule?
Its value is 1.1.

And the “Median Final RTV” value [2, 11]?
Its value is over 4.

What about the “Tumor Volume T/C” value [2, 12] of the same molecule?
Its value is 0.77.

What about the “EFS T/C” value (EW8 xenograft (Ewings); [11]) of the same molecule?
The value was 1.5.

And the “Median Final RTV” value (EW8 xenograft (Ewings); [11])?
The value was over 4.

What about the “Tumor Volume T/C” value (EW8 xenograft (Ewings); [12]) of the same molecule?
Its value is 0.86.

What about the “EFS T/C” value [3] of the same molecule?
Its value is 0.4.

What about the “Median Final RTV” value [3] of the same molecule?
The value was over 25.

What about the “proliferation of squamous cell carcinoma cell line” value [4] of the same molecule?
The value was “inhibited”.

And the “EFS T/C” value [5]?
The value was 1.

And the “Median Final RTV” value [5]?
Its value is over 25.

And the “EFS T/C” value [6, 11]?
The value was 2.2.

What about the “EFS activity notation (high, intermediate, indeterminate)” value [6, 11] of the same molecule?
Its value is “#”.

And the “Median Final RTV” value [6, 11]?
Its value is >4#.

And the “Overall Group Response” value [6, 11]?
Its value is “PD2 (1 < MS ≦ 3)”.

What about the “Tumor Volume T/C” value [6, 12] of the same molecule?
The value was 0.58.

And the “proliferation of squamous cell carcinoma cell line” value [7]?
The value was “inhibited”.

And the “EFS T/C” value (TC-71 xenograft (Ewings))?
The value was 1.2.

And the “Median Final RTV” value (TC-71 xenograft (Ewings))?
Its value is over 4.

What about the “Tumor Volume T/C” value (TC-71 xenograft (Ewings); day 21) of the same molecule?
Its value is 0.88.

What about the “EFS T/C” value [8] of the same molecule?
The value was 1.2.

And the “Median Final RTV” value [8]?
The value was over 4.

And the “Tumor Volume T/C” value ([8]; day 21)?
The value was 1.18.

And the “EFS T/C” value [9]?
Its value is 0.9.

And the “Median Final RTV” value [9]?
The value was over 4.

What about the “Tumor Volume T/C” value ([9]; day 21) of the same molecule?
Its value is 1.08.

And the “EFS T/C” value [10]?
Its value is 1.4.

And the “Median Final RTV” value [10]?
Its value is over 4.

What about the “Tumor Volume T/C” value ([10]; day 21) of the same molecule?
The value was 0.77.
